Source: the DeepSol protein solubility set

Assay: soluble on expression in E. coli; label from the status in PepcDB or PDB records
With “GPGSMTNFSPAKCEMDALFLTSAGTDGHPLAQPFWSSSRSSLPTFDAHRRGTARGRLQNPALIDSIRRSEGSRVGQDTCRYMQAAAASSQKAVHQLLSRLQTYRSFKPFLSPPAPYRDNLFTDDRGFSNFHGPSYGRGSTATVSRDQLWQMVDGILDTSVAQLLQHNAEGHFIMTLQSTLGLEAPISTAKSGTVIESRKAATPAIKGGATELASEERTPAGGPRQPLPPALQKTAVMSSFAPASALADRWALDHPSATAAAIEEQHHAWAKFEQQRQRTSRCFYLQAMQEQLDVLQAEQARDAADTTHSPPSRGDRSHRYLVDMHSPSDSEDAVAKTEEERQQALWHTFHDGPVLGVGASESLHETALGVPGIVSAYLESTDLQDWLHCSWAHRTHRHESAALRIQCAYRVYRARCKVREMRYERRQAFLASLSAERKARQVWDLALQVQKDTTTTTSGTDSTLRALQFFINKVNAVVAKHRARKQYQQRQDAEICRYAATRIQAVYRGHRTRAFVTELRHPEIVALRKHLQQENCAKLIQTCWRRYTAQRQWWRARHAACVLQSMYRCYAARRMLAERRYQRSLEASAELTKFAVQRIERWYASFLAARNAIGRAHVAELLMLQRVCRGYQGRHGVQKERRLSRFRFAVRTIEQRRWRVMEVREAIERRAALSATNAAKRTASMRDDAAVTIQRAWRQRRVLHVC” the “soluble on expression in E. coli” value was “soluble”. With “GPGSMTVLRRMRLTFVGTGVSSAVPVIGHLTTDCACRDAIANPSGPNRRNNVSLLISLPFAEGKSGVEWHHVLIDCGKTFRSAYMRVLAPMRVQYVDALLITHGHADAMHCVEELCGMQAEAAARYAQSVSPSSLPSSAGRTLASAVVPRTLRRVPTFLTAPTLDQIAMVSPELVTQSFHIGAAPTTGTAYHSALAATADMTARSSSSAEVLSTVMDIFYMDDTKPQRMHVPFGPLSLAASAARGVNATDAASDLPFYSFPVEHGKGYISMAWVFGRGTAFKSRQTQQQQQGSCVVYISDVSHIPATSMAFLQDLVKIDVLVLDLLAEHGAPSASHYCADEAIPLVVALAPRRTYFVGMFCSLEHHRTNEAFARELAELKMRYRDELEVVVPGSSAPAVTDTDREKKLAFVNRVCSMELAYDGQELDMDA” the “soluble on expression in E. coli” value was “not soluble”. With “GPGSMVFFGVGATGGTGCGPKQACFPWLENSSATRCQRGGRINLRFMLDLPQGDTEAPSTNQKRAVYAFCPIVDELQVFTLKGAGRVSSLLQKTSSSGQASITPNPAPRYLSVFGFGRSGQKEYPERDVSNSTVVIAMRDIGLCNSPDSVAIVNMVILTIGMHDGKFNYISSDADTKEPDDSESGIPSGNSSGTGSPMESVQPAMVGFRPTCDESDHCIFSPTSPCVGPIRGMKNCGACYNTPDDIEGASIQVWTSYQGTDLERQPLLSGGMDPMGFRKFAGGKFVGNIKYAVSKIENTASGMMPGDETNSTP” the “soluble on expression in E. coli” value was “not soluble”. In the case of “GPGSYLMLLGLNLIRLLVCSRIAEFHSEMEKIPFATHGSNLYIRFAVGLERYLMEGSYNKLLTSRKKVPSNEYLPVVEMLEQTVRDEVANCIPESYRQLSIPAAQRILMVDTEAKVREIGAKREWALSADGTHFVFTREDDTLQKEIPFKEMIEQHINFVADLQNIV”, the “soluble on expression in E. coli” value is reported as “not soluble”. In the case of “GPGTFGTAKARYDFCARDRSELSLKEGDIIKILNKKGQQGWWRGEIYGRIGWFPSNYVEEDYSEYLPETGGGSGSSMTYKLILNGKTLKGETTTEAVDAATAEKVFKQYANDNGVDGEWTYDDATKTFTVTEHSLEHHHHHH”, the “soluble on expression in E. coli” value is reported as “soluble”. In the case of “GPHMAVVDDLAPGMDSSPPSEDYGRQPPQDLAAEQSVLGGMLLSKDAIADVLERLRPGDFYRPAHQNVYDAILDLYGRGEPADAVTVAAELDRRGLLRRIGGAPYLHTLISTVPTAANAGYYASIVAEKALLRRLVEAGTRVVQYGYAGAEGADVAEVVDRAQAEIYDVADRRLSEDFVALEDLLQPTMDEIDAIASSGG”, the “soluble on expression in E. coli” value is reported as “soluble”. With “GPHVKSGLQIKKNAIIDDYKVTSQVLGLGINGKVLQIFNKRTQEKFALKMLQDCPKARREVELHWRASQCPHIVRIVDVYENLYAGRKCLLIVMECLDGGELFSRIQDRGDQAFTEREASEIMKSIGEAIQYLHSINIAHRDVKPENLLYTSKRPNAILKLTDFGFAKETTGEKYDKSCDMWSLGVIMYILLCGYPPFYSNHGLAISPGMKTRIRMGQYEFPNPEWSEVSEEVKMLIRNLLKTEPTQRMTITEFMNHPWIMQSTKVPQTPLHTSRVLKEDKERWEDVKEEMTSALATMR” the “soluble on expression in E. coli” value was “soluble”. For “GPLGSMSGPVPSRARVYTDVNTHRPREYWDYESHVVEWGNQDDYQLVRKLGRGKYSEVFEAINITNNEKVVVKILKPVKKKKIKREIKILENLRGGPNIITLADIVKDPVSRTPALVFEHVNNTDFKQLYQTLTDYDIRFYMYEILKALDYCHSMGIMHRDVKPHNVMIDHEHRKLRLIDWGLAEFYHPGQEYNVRVASRYFKGPELLVDYQMYDYSLDMWSLGCMLASMIFRKEPFFHGHDNYDQLVRIAKVLGTEDLYDYIDKYNIELDPRFNDILGRHSRKRWERFVHSENQHLVSPEALDFLDKLLRYDHQSRLTAREAMEHPYFYTVVKDQARMG”, the “soluble on expression in E. coli” value was “soluble”. For “GPLGSNMDAAEVEFLAEKELVTIIPNFSLDKIYLIGGDLGPFNPGLPVEVPLWLAINLKQRQKCRLLPPEWMDVEKLEKMRDHERKEETFTPMPSPYYMELTKLLLNHASDNIPKADEIRTLVKDMWDTRIAKLRVSADSFVRQQEAHAKLDNLTLMEINTSGTFLTQALNHMYKLRTNLQPLESTQSQDF”, the “soluble on expression in E. coli” value was “soluble”. With “GPMATESPNSVQKIVVHLRATGGAPILKQSKFKVSGSDKFANVIDFLRRQLHSDSLFVYVNSAFSPNPDESVIDLYNNFGFDGKLVVNYACSMAWG” the “soluble on expression in E. coli” value was “soluble”. For “GPQKRCLFVCRHGERMDVVFGKYWLSQCFDAKGRYIRTNLNMPHSLPQRSGGFRDYEKDAPITVFGCMQARLVGEALLESNTVIDHVYCSPSLRCVQTAHNILKGLQQDNHLKIRVEPGLFEWTKWVAGSTLPAWIPPSELAAANLSVDTTYRPHIPVSKLAISESYDTYINRSFQVTKEIISECKSKGNNILIVAHASSLEACTCQLQGLSPQNSKDFVQMVRKIPYLGFCSCEELGETGIWQLTDPPILPLTHGPTGGFNWRETLLQE”, the “soluble on expression in E. coli” value was “soluble”. In the case of “GPVDPAEYDAVWSAWRRAAPAEESRGRAAVVQKMRACLNNGNAVLNVGESGLTTLPDCLPAHITTLVIPDNNLTSLPALPPELRTLEVSGNQLTSLPVLPPGLLELSIFSNPLTHLPALPSGLCKLWIFGNQLTSLPVLPPGLQELSVSDNQLASLPALPSELCKLWAYNNQLTSLPMLPSGLQELSVSDNQLASLPTLPSELYKLWAYNNRLTSLPALPSGLKELIVSGNRLTSLPVLPSELKELMVSGNRLTSLPMLPSGLLSLSVYRNQLTRLPESLIHLSSETTVNLEGNPLSERTLQALREITSAPGYSGPIIRFDMAGASAPRETRALHLAAADWLVPAREGEPAPADRWHMFGQEDNADAFSLFLDRLSETENFIKDAGFKAQISSWLAQLAEDEALRANTFAMATEATSSCEDRVTFFLHQMKNVQLVHNAEKGQYDNDLAALVATGREMFRLGKLEQIAREKVRTLALVDEIEVWLAYQNKLKKSLGLTSVTSEMRFFDVSGVTVTDLQDAELQVKAAEKSEFREWILQWGPLHRVLERKAPERVNALREKQISDYEETYRMLSDTELRPSGLVGNTDAERTIGARAMESAKKTFLDGLRPLVEEMLGSYLNV”, the “soluble on expression in E. coli” value is reported as “soluble”. For “GQDSEVLLDGVAKLSSHNNVIEDAIEGVDLTLKGKSEPNKPPAEIGVEYDRQSVRSDIENFVSAYNSFYQTSQALSSVDPTTGQKGPLAGDSTVRSADSRLKAVFSSRIDQAPENLKSLTEFGITTTRQGTLEINYDMLDRQLNNNFNELEKFFGGNTGFAKRIEDAIHGITGITGSIRTREKSLTEQNYRLNDDQAALDRRMEGLEKRTHAKFTAMQDATGKMQGQLGALMSALG”, the “soluble on expression in E. coli” value was “not soluble”. For “GRHLFVLEREAKLKDYLATADITRVEKGDTKFGVVTAGTCYPYLREVLPNATVLKLGASWPLPDTLLREFCASVDQVFVVEELEPIIEKEVASLGIKVEGKRLFPRAGEFSPEVVRAGFVQAGLLPAPPSYNAWVPEPVVRPPVLCAGCPHTSSFLAVRASGARVAGDIGCYTLAVLDPLRGIDTCVAMGSSIGNAIGMAKAGEAKPVVATIGDSTFLHAGLPALIDAVYNQANIAVVLLDNHITAMTGGQEH”, the “soluble on expression in E. coli” value was “not soluble”. In the case of “GSAHRFPALTQEQKKELSEIAQSIVANGKGILAADESVGTMGNRLQRIKVENTEENRRQFREILFSVDSSINQSIGGVILFHETLYQKDSQGKLFRNILKEKGIVVGIKLDQGGAPLAGTNKETTIQGLDGLSERCAQYKKDGVDFGKWRPVLRIADQCPSSLAIQENANALARYASICQQNGLVPIVEPEVIPDGDHDLEHCQYVTEKVLAAVYKALNDHHVYLEGTLLKPNMVTAGHACTKKYTPEQVAMATVTALHRTVPAAVPGICFLSGGMSEEDATLNLNAINLCPLPKPWKLSFSYGRALQASALAAWGGKAANKEATQEAFMKRAMANCQAAKGQYVHTGSSGAASTQSLFTACYTY”, the “soluble on expression in E. coli” value is reported as “soluble”. For “GSASAQSRTLAGGIHATDLNDKSVQRALDFAISEYNKVINKDEYYSRPLQVMAAYQQIVGGVNYYFNVKFGRTTCTKSQPNLDNCPFNDQPKLKEEEFCSFQINEVPWEDKISILNYKCRKV”, the “soluble on expression in E. coli” value was “soluble”. For “GSDDLVGVSVRPKVPLRTMSYKLAIDMSHFIKEKGGLEGIYYSARRHRILDIYLEKEEGIIPDWQDYTSGPGIRYPKTFGWLWKLVPVNVSDEAQEDEEHYLMHPAQTSQWDDPWGEVLAWKFDPTLAYTYEAYVRYPEEFGS”, the “soluble on expression in E. coli” value was “soluble”. In the case of “GSDELKWNKGYSLPNLLEVTDQQKELSQWTLGDKVKLEEGRFVLTPGKNTKGSLWLKPEYSIKDAMTIEWTFRSFGFRGSTKGGLAFWLKQGNEGDSTELFGGSSKKFNGLMILLRLDDKLGESVTAYLNDGTKDLDIESSPYFASCLFQYQDSMVPSTLRLTYNPLDNHLLKLQMDNRVCFQTRKVKFMGSSPFRIGTSAINDASKESFEILKMKLYDGVIEDSL”, the “soluble on expression in E. coli” value is reported as “soluble”. For “GSDSLIRDLSGLSQKMVQTLLEQIRSNYDDYLTFSNTYTDEENETLINLEKTQSDLQKFMTQLDHLIKDDISNTQEIIKDVLEYLKKLDEIYGSLRNHSQLTEALSLGKRLSKSLHEMCGIEPLEEEICSGLIEQLYKLITASRRILESCADSNSPYIHHLRNDYQDLLQEFQISLKILTEKCLENPSSLQNLSLTLVSIIKTA”, the “soluble on expression in E. coli” value was “soluble”. With “GSEELLDLFNRQVTQEFTASQVYLSASIWFDQNDWEGMAAYMLAESAEEREHGLGFVDFANKRNIPIELQAVPAPVSCAEWSSPEDVWQSILELEQANTRSLLNLAEAASTCHDFAVMAFLNPFHLQQVNEEDKIGSILAKVTDENRTPGLLRSLDVVSFLGPCLFRS” the “soluble on expression in E. coli” value was “soluble”. For “GSFTGQGDFHLLDHRGRARCKADFRGQWVLMYFGFTHCPDICPDELEKLVQVVRQLEAEPGLPPVQPVFITVDPERDDVEAMARYVQDFHPRLLGLTGSTKQVAQASHSYRVYYNAGPKDEDQDYIVDHSIAIYLLNPDGLFTDYYGRSRSAEQISDSVRRHMAAFRSVLS”, the “soluble on expression in E. coli” value was “soluble”. In the case of “GSHMASMTGGQQMGRGSENLYFQGNPILAGLGFSLPKRQVSNHDLVGRINTSDEFIVERTGVRTRYHVEPEQAVSALMVPAARQAIEAAGLLPEDIDLLLVNTLSPDHHDPSQACLIQPLLGLRHIPVLDIRAQCSGLLYGLQMARGQILAGLARHVLVVCGEVLSKRMDCSDRGRNLSILLGDGAGAVVVSAGESLEDGLLDLRLGADGNYFDLLMTAAPGSASPTFLDENVLREGGGEFLMRGRPMFEHASQTLVRIAGEMLAAHELTLDDIDHVICHQPNLRILDAVQEQLGIPQHKFAVTVDRLGNMASASTPVTLAMFWPDIQPGQRVLVLTYGSGATWGAALYRKPEEVNRPC”, the “soluble on expression in E. coli” value is reported as “soluble”. For “GSHMGSLDETTYERLAEETLDSLAEFFEDLADKPYTFEDYDVSFGSGVLTVKLGGDLGTYVINKQTPNKQIWLSSPSSGPKRYDWTGKNWVYSHDGVSLHELLAAELTKALKTKLDLSSLAYSGKDA”, the “soluble on expression in E. coli” value was “soluble”.
